# Data published in paper PMC10065799, “High-throughput profiling of sequence recognition by tyrosine kinases and SH2 domains using bacterial peptide display” (eLife, 2023).
# Square brackets hold non-standard residues; d marks the D form. pY = N[C@@H](Cc1ccc(OP(=O)(O)O)cc1)C(=O)O
# Target: human c-Src SH2 domain (residues 143-250) (human, UniProt P12931-1 143-250, biotin on the Avi tag (co-expression with the biotin ligase BirA))
# Test: fluorescence polarisation; competition: unlabeled phosphopeptide serially diluted against 30 nM fluorescent peptide and 240 nM (1.5 x KD) c-Src SH2; same buffer; 25 °C; cubic binding equation
# Details: both partners purified
row,Binder,binding result
1,"Ac-QSDQRR[pY]SLIDRG-NH2 (SMILES CC[C@H](C)[C@H](NC(=O)[C@H](CC(C)C)NC(=O)[C@H](CO)NC(=O)[C@H](Cc1ccc(OP(=O)(O)O)cc1)NC(=O)[C@H](CCCNC(=N)N)NC(=O)[C@H](CCCNC(=N)N)NC(=O)[C@H](CCC(N)=O)NC(=O)[C@H](CC(=O)O)NC(=O)[C@H](CO)NC(=O)[C@H](CCC(N)=O)NC(C)=O)C(=O)N[C@@H](CC(=O)O)C(=O)N[C@@H](CCCNC(=N)N)C(=O)NCC(N)=O, source: synthetic peptide (synthesized in-house, RP-HPLC purified)) [CLIP2_Y972 phosphopeptide Ac-QSDQRR(pY)SLIDRG-NH2]",binds
2,"Ac-QSDQRR[pY]SLIDPG-NH2 (SMILES CC[C@H](C)[C@H](NC(=O)[C@H](CC(C)C)NC(=O)[C@H](CO)NC(=O)[C@H](Cc1ccc(OP(=O)(O)O)cc1)NC(=O)[C@H](CCCNC(=N)N)NC(=O)[C@H](CCCNC(=N)N)NC(=O)[C@H](CCC(N)=O)NC(=O)[C@H](CC(=O)O)NC(=O)[C@H](CO)NC(=O)[C@H](CCC(N)=O)NC(C)=O)C(=O)N[C@@H](CC(=O)O)C(=O)N1CCC[C@H]1C(=O)NCC(N)=O, source: synthetic peptide (synthesized in-house, RP-HPLC purified)) [CLIP2_Y972_R977P phosphopeptide Ac-QSDQRR(pY)SLIDPG-NH2]",binds
